Paper PMC6349121, “Structural insights into non-covalent ubiquitin activation of the cIAP1-UbcH5B∼ubiquitin complex” (The Journal of Biological Chemistry, 2018)

Experiments:
[1] = target: T1, UbcH5B S22R C85K covalently linked to Ub (UbcH5B_(S22R)–Ub) (human, UniProt P62837 1-147; P0CG47 1-76, S22R | C85K, Lys85 (C85K) in a stable amide linkage to Ub | covalently linked to Lys85 of UbcH5B S22R C85K (amide linkage)); experiment: SPR; GST-cIAP1R coupled to a CM-5 chip, Biacore T200, 25 °C; analytes diluted in 25 mM Tris-HCl pH 7.6, 150 mM NaCl, 0.1 mg/ml BSA, 1 mM DTT, 0.005% Tween 20; GST alone subtracted; steady-state affinity analysis; conditions: both partners purified
T1 construct: UbcH5B, human Ub-conjugating enzyme (E2); ubiquitin (Ub), human, donor Ub; source: E. coli BL21 (DE3) Gold

UbcH5B = target: T2, UbcH5B (human, UniProt P62837 1-147); experiment: as above; conditions: both partners purified
T2 construct: UbcH5B, human Ub-conjugating enzyme (E2), untagged; also called UbcH5B WT

[2] = target: T3, UbcH5B C85K covalently linked to Ub (UbcH5B–Ub) (human, UniProt P62837 1-147; P0CG47 1-76, C85K, Lys85 (C85K) in a stable amide linkage to Ub | covalently linked to Lys85 of UbcH5B C85K (amide linkage)); experiment: as above; conditions: both partners purified
T3 construct: UbcH5B, human Ub-conjugating enzyme (E2); ubiquitin (Ub), human, donor Ub (Ub^D); the model of 6HPR holds residues 1-76; source: E. coli BL21 (DE3) Gold

[3] = target: T1, UbcH5B S22R C85K covalently linked to …; experiment: SPR; as a1, but UbcH5B–Ub variants diluted in running buffer containing 0.6 mM UbΔGG; GST-cIAP1R coupled to a CM-5 chip, 25 °C; steady-state affinity analysis; conditions: both partners purified
ubiquitin (Ub) = target: T4, ubiquitin (Ub) (human, UniProt P0CG47 1-76); experiment: crystal structure; cIAP1R, UbcH5B–Ub and Ub mixed at 1:1:1.2 molar ratio; sitting drop, 0.2 M ammonium fluoride, 15% PEG 3350, 19 °C; 1.7 Å; dimer generated by crystallographic symmetry; conditions: both partners purified
T4 construct: ubiquitin (Ub), human; in the model of 6HPR Ub^B is chain B (residues 1-74 seen) and Ub^D chain D (residues 1-76); Free Ub was mixed into the crystallised complex as Ub^B; in the rows on Ub^D it stands for the Ub part of the conjugate m4; also called WT Ub

[4] = target: the molecule itself; experiment: as above

Kd [1] [nM] | Kd (UbcH5B) [nM] | Kd [2] [nM] | Kd [3] [nM] | binding result (ubiquitin (Ub)) | Binder | binding result [4]
900 ± 10 | 223000 ± 4000 | 830 ± 50 | 990 ± 50 | – | GST-cIAP1R (cIAP1 RING domain, residues 556-C, with GST) (domain or fragment, human, UniProt Q13490 556-618, looked up, pGEX4T1 with a TEV site after GST; the tag is not cleaved in this form; source: E. coli BL21 (DE3) Gold; not shown: GST, N-terminal, kept) LSLEEQLRRLQEERTCKVCMDKEVSVVFIPCGHLVVCQECAPSLRKCPICRGIIKGTVRTFLS | –
– | – | – | – | binds | cIAP1 RING domain (residues 556-C; cIAP1R) (domain or fragment, human, UniProt Q13490 556-618, looked up, Homodimer through the RING domain; in the crystal the dimer is generated by crystallographic symmetry; also called cIAP1 RING dimer; not shown: GST, N-terminal, cleaved) LSLEEQLRRLQEERTCKVCMDKEVSVVFIPCGHLVVCQECAPSLRKCPICRGIIKGTVRTFLS | binds
